Experiment [1] addresses T1, sAniA, recombinant AniA (NGO1276) of Neisseria gonorrhoeae FA1090 lacking the N-terminal palmitoylation … (Neisseria gonorrhoeae FA1090, UniProt Q02219 19-392).
T1 construct: mature; also called nitrite reductase; NirK
T1 sequence: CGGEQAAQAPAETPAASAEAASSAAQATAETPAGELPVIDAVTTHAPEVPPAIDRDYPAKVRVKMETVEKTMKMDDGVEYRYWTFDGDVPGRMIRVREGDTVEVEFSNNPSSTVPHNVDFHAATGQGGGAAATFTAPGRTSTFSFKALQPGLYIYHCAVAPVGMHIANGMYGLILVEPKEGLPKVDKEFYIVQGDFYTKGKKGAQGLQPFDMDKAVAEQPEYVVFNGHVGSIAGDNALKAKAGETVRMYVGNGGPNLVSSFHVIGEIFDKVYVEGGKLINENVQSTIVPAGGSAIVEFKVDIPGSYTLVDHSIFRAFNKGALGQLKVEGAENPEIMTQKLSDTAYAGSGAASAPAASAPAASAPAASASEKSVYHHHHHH
Briefly: phage ELISA on sAniA-coated wells; reference is phage-displayed 12-5.
Protocol: Individual wells in 96-well transparent plates (Greiner-Bio) were coated with 100 μL of 100 pg/mL of sAniA suspended in 0.1 M NaHCO₃pH 8.6 and incubated overnight at 4° C. in an airtight humidified box. After incubation, excess target solution was shaken out and wells were filled with 300 μL of blocking buffer (0.1 M NaHCO₃pH 8.6, 5 mg/mL BSA). Following 2 h incubation at 4° C., blocking buffer was removed and wells were washed six times with 200 μL of TBST (50 mM Tris-HCl pH 8.6, 150 mM NaCl, 0.5% Tween). Isolated individual phage amplifications (10¹⁰ PFU) in 100 μl of TBST were incubated at room temperature for 1 h with rocking. All wells were then cleared by shaking and washed six times with 200 μL of TBST. A solution containing Anti-M13 HRP linked-Monoclonal Antibodies (NEB) (1:5,000 dilution in blocking buffer) was distributed at 200 μL per well and incubated with rocking at room temperature for 1 h. Wells were washed six times with TBST and incubated with Turbo TMB-ELISA for 30 min with rocking at room temperature. […] Data from seven independent experiments are shown with mean and SEM

Experiment [2] concerns the target T1, sAniA, recombinant AniA (NGO1276) of …. The experiment can be described thus: cell-based or functional assay.
Experiment [3] has the same target. Briefly: biolayer interferometry (OctetRed 96): C7-3Bio on streptavidin sensors, sAniA 50-1000 nM in solution, 2:1 heterogeneous ligand model, average ± SEM of three experiments.
Protocol: Streptavidin (SA) biosensors (ForteBio) were loaded with C7-3Bio peptides for 10 min. Unloaded tips were used as a control. The sAniA samples were prepared in Kinetic Buffer in concentrations of 50, 100, 500, and 1000 nM. The baseline was established for 240 s and the association and dissociation steps were performed for 500 s. Experiments were performed in three biological replicates with the curve fitting using 2:1 (Heterogeneous Ligand) model and KD value calculations were completed using Octet Data Analysis (version 9).
The BLI experiments were performed using steady state method and curve fitting of the association and dissociation responses.
For experiment [4], the target named is AniA expressed by intact N. gonorrhoeae FA1090 ΔaniA/Plac::aniA cells (Neisseria gonorrhoeae FA1090), Q02219. Briefly: cell-based or functional assay.

The star is where a group is joined. Biotin = O=C1N[C@H]2[C@H](CS[C@H]2CCCCC(=O)*)N1; Ahx = NCCCCCC(=O)O

B1: phage-displayed peptide C7-3 (CNYCRLNLW), M13 phage clone from the Ph.D.-C7C library (peptide, not shown: large carriers)
peptide: CNYCRLNLW
notes: Tested as whole phage (10^10 PFU per well) in the phage ELISA; Trp stands where the library's second Cys would be; also called phage-expressed C7-3
For the molecule B1, in experiment [1], the “fold lower relative binding in comparison to 12-5” value was roughly 2 fold.

B2: C7-3Bio, C7-3 biotinylated at the N-terminus (BiotinAhx-ACNYCRLNLWGGGS-NH2) (peptide)
peptide: {Biotin-Ahx}-ACNYCRLNLWGGGS-NH2
modifications: cysteine pairing not given here
notes: Immobilized on streptavidin biosensors in the BLI experiment; also called biotinylated C7-3
For the molecule B2, in experiment [2], the “IC50 of inhibition of nitrite reductase activity of AniA (DAN assay)” value was determined as 13.5 µM. Further, the Kd in experiment [3] worked out at 0.775 µM.
Turning to H-ACNACRLNLWGGGS-NH2 (cysteine pairing not given here) [synthetic peptide C7-3A (H-ACNACRLNLWGGGS-NH2)], in experiment [2], the “IC50 of inhibition of nitrite reductase activity of sAniA (DAN assay)” value is roughly 25.2 µM.
With H-ACNYCRLNLWGGGS-NH2 (cysteine pairing not given here) [synthetic peptide C7-3 (H-…-NH2)], the percent inhibition of nitrite reductase activity of intact N. gonorrhoeae cells at 0.6 mM peptide in experiment [4] was found to be 50%.
For the molecule H-ACNYCRLNLWGGGS-NH2 (cysteine pairing not given here) [synthetic peptide C7-3 (H-ACNYCRLNLWGGGS-NH2)], in experiment [2], the “IC50 of inhibition of nitrite reductase activity of sAniA (DAN assay)” value stood at 10.2 µM.
Same read-out and setting: next, H-ACNYSRLNLWGGGS-NH2 [synthetic peptide C7-3m1 (H-ACNYSRLNLWGGGS-NH2)]: 5.91 µM; H-ACNFCRLNLWGGGS-NH2 (cysteine pairing not given here) [synthetic peptide C7-3P (H-ACNFCRLNLWGGGS-NH2)]: greater than 105 µM.
On the same count and under the same terms, next, H-ACSYCRLNLWGGGS-NH2 (cysteine pairing not given here) [synthetic peptide C7-3m2 (H-ACSYCRLNLWGGGS-NH2)]: 4.81 µM.
Turning to H-ACSYCRLNLWGGGS-NH2 (cysteine pairing not given here) [synthetic peptide C7-3m2 (H-…-NH2)], in experiment [4], the percent inhibition of nitrite reductase activity of intact N. gonorrhoeae cells at 0.3 mM peptide was 50% and the percent inhibition of nitrite reductase activity of intact N. gonorrhoeae cells at 0.6 mM peptide worked out at 90%.

These data come from US20190389905A1 (OREGON STATE UNIVERSITY, published 2019).
